Measurements as given in the supplement of paper PMC12764529.
± gives the half width of the 95% confidence interval.

What was measured:
[1] = folding stability dG unfold from chymotrypsin proteolysis; higher = more stable
Summary of the method: (§1)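 Unfolding free energy was derived, per protease or combined, against a sequence-predicted unfolded-state K50 and a shared folded-state K50, starting from K50 inferred by Bayesian fitting of sequencing counts. Digestion with trypsin and chymotrypsin was carried out on designed mini-proteins under 80 residues without cysteine in a PA-tagged cDNA display construct. Only designs with AlphaFold2 dimer inter-PAE above 15 were kept.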

[2] = folding stability dG unfold (combined trypsin and chymotrypsin); higher = more stable
Summary of the method: as §1

[3] = folding stability dG unfold from trypsin proteolysis; higher = more stable
Summary of the method: as §1

| Sequence | folding stability dG unfold [1] | folding stability dG unfold [2] | folding stability dG unfold [3] |
| --- | --- | --- | --- |
| SMPKTIELEIDEDLPEEEVRARLLAQGFEEIEFHELEDPEVRRVTATRPEDDETVVVTVRPPPVPPDAPGSA [r9_1090_JUSTAS] | 2.29 ± 0.079 kcal/mol | 2.28 ± 0.18 kcal/mol | 2.38 ± 0.096 kcal/mol |
| SAGGSARIKIDPPGKIKVYYNGQPFTIKPGVELDIQRTDDMIVLRIRMRDPDGKPVGEFPFMFRIKSAGGSA [r15_424_TrROS] | 2.59 ± 0.23 kcal/mol | 2.41 ± 0.24 kcal/mol | 2.13 ± 0.073 kcal/mol |
| SAGGKIRIDVQYNKNEGYITIRIRFNGNTREIPIPSPKQSPEDVREEAEEIAKYLQEEYNIKEVEIWSAGGS [r16_249_TrROS] | 2.34 ± 0.11 kcal/mol | 2.36 ± 0.16 kcal/mol | 2 ± 0.068 kcal/mol |
| SPPITFFRVPAEYDEPNGKRTIKVRIWRIRDVEKDPNGGPKMDMEPQPVTFKLPVPPGAPIPPGDWIFAFSA [r9_277_TrROS] | 0.315 ± 0.35 kcal/mol | 0.831 ± 0.34 kcal/mol | 1.57 ± 0.16 kcal/mol |
| SAGGMELFELEFEAEITPLEEPDKPVPVKIRILKRVEPVPNEPGFKVHYRALLENEEGVVPFEFTLDSAGGS [r16_300_TrMRF] | 1.74 ± 0.085 kcal/mol | 1.42 ± 0.085 kcal/mol | 0.998 ± 0.055 kcal/mol |
| SAGGSAGGSAGGDNWKIGIDIIPIRFTFEMTMKDGGKPRPMRMEFEVTIIVIKITPPGDSAGGSAGGSAGGS [r10_118_TrROS] | 5.1 ± 0.079 kcal/mol | 4.89 ± 0.11 kcal/mol | 3.5 ± 0.1 kcal/mol |
| SAGGSAGGSADEEKLKELAEKLREAGYEVEVERYPDKVVIRVRNKKTGKTLELVFDSVEEALSAGGSAGGSA [r18_278_TrROS_Hall] | 2.95 ± 0.096 kcal/mol | 3.92 ± 0.15 kcal/mol | 4.24 ± 0.12 kcal/mol |
| SADLKIDDVTVQHYNDYLYVSAEITFPNGWEITVHWMIDPNGKIIDMMIEIRPPPPPVDEEDQEKAQKKSAG [r14_171_TrROS] | 3.35 ± 0.14 kcal/mol | 3.05 ± 0.25 kcal/mol | 2.47 ± 0.22 kcal/mol |
| SAGGELSEEFVKKLFENLGFEELEVVDLENKKVAYFRKGNYLVKVYDDGTIEIFDENGELVETINVDSAGGS [r8_147_TrMRF] | 3.89 ± 0.053 kcal/mol | 3.48 ± 0.19 kcal/mol | 2.26 ± 0.12 kcal/mol |
| SAGGSAGGPKIRIEIEHYDNYIVISIRIPPGMPPGQEIKFEIGGYPVKVTYDPEDGWMTISFPASAGGSAGG [r6_267_TrROS] | 3.06 ± 0.082 kcal/mol | 3.2 ± 0.14 kcal/mol | 3.24 ± 0.076 kcal/mol |
| SAGGSAKKKTIELTIVIKIKKKPGETAEEIAKKILDALKKLLPPGAKIEIEVEVKDDYIVIKVKIESAGGSA [r15_739_TrROS_Hall] | 2.76 ± 0.09 kcal/mol | 2.69 ± 0.13 kcal/mol | 2.49 ± 0.14 kcal/mol |
| SAGMKETLKVKIKVKLSEEQREKLKKALEELGATVEVDEETGEVTVEVSAEQVEALKKIPGVEEIEVESAGG [r19_212_TrROS_Hall] | 2.61 ± 0.24 kcal/mol | 2.76 ± 0.14 kcal/mol | 3.22 ± 0.18 kcal/mol |
| SAGGSAGGSPIDITDIEVEQHEHPDGQQYHEVKIRLPDGRPIKIWMSPGSTPDQVLKQAKEFISAGGSAGGS [r12_1047_TrROS] | -0.0705 ± 0.26 kcal/mol | 0.0598 ± 0.17 kcal/mol | -0.137 ± 0.12 kcal/mol |
| SAGNIQIEPTDGKWRIRITYWMPDPDEITPDTFKNLLRNLGLPIKDIDIEPEPNPNGQRYVTAEIWIPVSAG [r5_922_TrROS] | 3.34 ± 0.071 kcal/mol | 3.23 ± 0.059 kcal/mol | 2.84 ± 0.043 kcal/mol |
| SAMTLEEAKKKGLVVIRVKIEVTLPNGEKREFERVIVAESLEEALEALREELEREGYKVEIVEIEIEKLSAG [r14_854_TrROS_Hall] | 1.51 ± 0.11 kcal/mol | 2.04 ± 0.21 kcal/mol | 2.76 ± 0.16 kcal/mol |
| SAGMDMEEAEKLAEEIAEQLAKELEKKTGIKPEKIKIEVTVTKLPDGSYLITIKATLEDKEVEKTYTIASAG [r14_226_JUSTAS] | 2.28 ± 0.066 kcal/mol | 2.68 ± 0.12 kcal/mol | 3.11 ± 0.21 kcal/mol |
| SAGGSAGGSAPPGQQLRVRIRIYNPNNGEPKREREFPGMTVDDLKEWAQKNGWRIREIEVDSAGGSAGGSAG [r3_423_TrROS] | 1.49 ± 0.2 kcal/mol | 1.3 ± 0.095 kcal/mol | 0.559 ± 0.1 kcal/mol |
| SAGGSMTLTIEVDGKTVEITEVREKEDGEKVVRIRVTTPDGEEKEIEMTLDELAEILGLSKEELEPSAGGSA [r2_262_TrROS_Hall] | 2.67 ± 0.085 kcal/mol | 3.27 ± 0.18 kcal/mol | 3.75 ± 0.19 kcal/mol |
| SAGGGAIVRARFPRDIPELVRAYKILEAAAPDEEVTLLLPEKPVVVVRREKVGDYFLLEVRLPEDLLSAGGS [r16_404_TrMRF] | 0.546 ± 0.15 kcal/mol | 0.609 ± 0.12 kcal/mol | 0.647 ± 0.2 kcal/mol |
| SAGGSAGGSAGGSPAVRIPLEVLKELIPPDLVVEVNPVPVPEEGGVLVPVRVVSPEEAASAGGSAGGSAGGS [r4_119_TrMRF] | 1.13 ± 0.042 kcal/mol | 0.728 ± 0.18 kcal/mol | 0.0931 ± 0.052 kcal/mol |
| SAGGMKEIEIDIPLENGEPAKIRIILLNLPDKPRAFIDIESKILPKEEIAKIITKLLPEEIKEVVIDESAGG [r13_404_TrMRF] | 0.383 ± 0.5 kcal/mol | 0.694 ± 0.28 kcal/mol | 1.03 ± 0.092 kcal/mol |

| Sequence | folding stability dG unfold [1] | folding stability dG unfold [2] | folding stability dG unfold [3] |
| --- | --- | --- | --- |
| SAGGSAGGSAGMSSVAPITTPDGKVAESVTVTEETLPNGEVVTKITTTLPDGTVVTTTLESAGGSAGGSAGG [r11_810_JUSTAS] | 0.997 ± 0.051 kcal/mol | 1.3 ± 0.1 kcal/mol | 1.59 ± 0.066 kcal/mol |
| SAGGSAGGSAGKKKIIILINENMKEEEIVDYIKKKYGKNVKIEEIIPISPNIKIIKVIIDSAGGSAGGSAGG [r11_580_TrMRF] | 4.01 ± 0.17 kcal/mol | 4.02 ± 0.14 kcal/mol | 3.96 ± 0.12 kcal/mol |
| SAGGSAGGSAGEEVILRIKVKLKNGEERTIEINMTLDELLAELPENVTEIKIEAIPKEDLSAGGSAGGSAGG [r11_596_TrROS_Hall] | 1.54 ± 0.017 kcal/mol | 1.46 ± 0.079 kcal/mol | 1.29 ± 0.052 kcal/mol |
| SAGGSAGGSAGKKTLPTYDPKKGKISLIVIEDKEGKEIVFEAFGDGKEFIEAAKEFEKKISAGGSAGGSAGG [r11_119_TrMRF] | 0.182 ± 0.064 kcal/mol | -0.0388 ± 0.099 kcal/mol | -0.463 ± 0.12 kcal/mol |
| SAGGEIEIDENGFIRMTLYDPATGYKIEAEFRILPDGTIEITKIKIEPLPPPPPPKVFVLDENGELVESAGG [r13_646_TrROS_Hall] | 3.1 ± 0.086 kcal/mol | 2.77 ± 0.38 kcal/mol | 3.31 ± 0.2 kcal/mol |
| SAGMKIKIKLENGEEIEIDKENPVIKIKNKETGEEVELVFDPENEDEIYIFNKKTKKLIAKFKITEIEPSAG [r5_761_TrROS_Hall] | 3.21 ± 0.084 kcal/mol | 2.62 ± 0.34 kcal/mol | 1.87 ± 0.092 kcal/mol |
| SAGKVEIIPIENEDGSKFLVIKVNGKLIIITENEDGSISIKIIDLKTNKIEVIEIPKKDLKKALEKILKSAG [r5_674_TrROS_Hall] | 3.48 ± 0.12 kcal/mol | 3.59 ± 0.2 kcal/mol | 3.82 ± 0.18 kcal/mol |
| SAGYIRIEKDNDYYKIEFLFPPNDPSLIENLVEAIRQKGWKVKDVEVEVEPNKDGMYRVEIDFKIKPPDSAG [r5_739_TrROS] | 3.31 ± 0.099 kcal/mol | 2.88 ± 0.17 kcal/mol | 2.53 ± 0.12 kcal/mol |
| SAGGSAGGSAGKLEVVELEDGYLVVYDPETGLIVLYTPEEVVAELLDAFDPDKPVVVVEFSAGGSAGGSAGG [r11_374_TrMRF] | 0.689 ± 0.064 kcal/mol | 1.17 ± 0.11 kcal/mol | 1.46 ± 0.091 kcal/mol |
| SAGKITINVMMNPDGNYYVKIRIGGDGEPIMEFPVDSPEDAEEKAKAFADNLAKKYPNYKIEVDYMPFDSAG [r5_383_TrROS] | 3.06 ± 0.066 kcal/mol | 3.64 ± 0.12 kcal/mol | 4.23 ± 0.32 kcal/mol |
| SAGGSAGGAPLMIMLEAEWKREPDPNGDKRRKVKLRVSIMTPRPDPDGKPNMHMISIPITFKVKSAGGSAGG [r6_224_TrROS] | 4.08 ± 0.07 kcal/mol | 3.51 ± 0.2 kcal/mol | 2.87 ± 0.087 kcal/mol |
| SAGFKIVDVEPTDGRLEITIPIDKPGDALMFMVPFPNAKITPDPNGKITITIPPGGWYMIMIRLKKDASAGG [r19_227_TrROS] | 2.67 ± 0.091 kcal/mol | 2.6 ± 0.14 kcal/mol | 2.33 ± 0.037 kcal/mol |
| SAGGSAKEIKVEITYDPETNTITIKVYKDGKLVAEMTMKIEVNGKLIEVKVTLYLDPKTKKLVVKPSAGGSA [r15_770_TrROS_Hall] | 3.3 ± 0.048 kcal/mol | 2.96 ± 0.13 kcal/mol | 1.94 ± 0.081 kcal/mol |
| SAMTITVVADSAEEAERAARELAERLREALRELGIEGAEIEIKVTVLPAPPPERVLVRDPETDEWKEVPSAG [r14_475_TrROS_Hall] | 1.18 ± 0.031 kcal/mol | 0.981 ± 0.11 kcal/mol | 0.184 ± 0.14 kcal/mol |
| SAGGSAGGSGSMPVTIEIEYKDPKSDKTFKKTILVPPSVTDPEAVAEEVAKELGPVEKVKITSSAGGSAGGS [r12_942_JUSTAS] | -0.44 ± 0.24 kcal/mol | 0.0443 ± 0.48 kcal/mol | 0.595 ± 0.061 kcal/mol |
| SAGGEERERIRRLVRELRRRGYKRITADELARLLGREITEEELEALREAGLIELEEEETVEVVLPEEESAGG [r13_188_TrROS_Hall] | 4.26 ± 0.085 kcal/mol | 4.15 ± 0.14 kcal/mol | 4.02 ± 0.16 kcal/mol |
| SAGGEEGKPKWVEMWIFIPKEILEDIKQGEPLTVKQIAQKIGFPPNIEVKIIEREGDYIYVRITIPVSAGGS [r16_679_TrROS] | 4.66 ± 0.11 kcal/mol | 4.66 ± 0.27 kcal/mol | 4.53 ± 0.25 kcal/mol |
| SAGGSAGGSAGGAPTIRVELRHPNGERIELEFPADADVIFVPEDYEITRIEIVPADDPASAGGSAGGSAGGS [r10_571_TrMRF] | 1.837 ± 0.018 kcal/mol | 1.69 ± 0.052 kcal/mol | 1.51 ± 0.062 kcal/mol |
| SAGGSAGGSAPFNINDPNIGEVEIFPGPNAVILIKLPDGGYLVITNNGEDNVSIELVSDDESAGGSAGGSAG [r3_62_TrMRF] | 0.468 ± 0.16 kcal/mol | 1.15 ± 0.15 kcal/mol | 1.72 ± 0.13 kcal/mol |
| SAGGMLVTFTTPDGKTVTVEVDSLEEAKKVIAEKLGLPPDTVLDVTVTDPVTGEVTSETVTIPVPVPESAGG [r13_145_JUSTAS] | 3.99 ± 0.07 kcal/mol | 3.96 ± 0.049 kcal/mol | 3.3 ± 0.09 kcal/mol |
| SAGGSMFKVEEVETLENGEVLAKLTVYLDGKPYPATARIYTLPDGRKVAEIYFPDNPNVSLRIPLTSAGGSA [r2_376_TrMRF] | 4.14 ± 0.024 kcal/mol | 4.1 ± 0.053 kcal/mol | 3.91 ± 0.059 kcal/mol |
